Measurements taken from publication PMC11757143, “Generation and characterization of OX40-ligand fusion protein that agonizes OX40 on T-Lymphocytes” (Frontiers in Immunology, 2025).

Tests used:
OX40-Fc = biological target: T1, OX40-Fc (Mus musculus, UniProt P47741); set-up: method as in PMID 36450532, PMID 37371066; conditions: previous studies; ref [23], [24]; cited from earlier work
T1 construct: made in house
T1 sequence (P47741 20-211 limits assumed): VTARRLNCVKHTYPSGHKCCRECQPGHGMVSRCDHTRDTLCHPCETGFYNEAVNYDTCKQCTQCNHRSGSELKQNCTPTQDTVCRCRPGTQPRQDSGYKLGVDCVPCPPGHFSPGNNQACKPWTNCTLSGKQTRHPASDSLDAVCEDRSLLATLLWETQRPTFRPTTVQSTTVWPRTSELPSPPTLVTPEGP

[1] = test system: antigen-specific T cell responses of draining lymph node cells; assay: Antigen recall responses of dLN cells from TNP-KLH/CFA-immunized mice (cytokine ELISA, MTT proliferation); assay type: in vivo, C57BL/6 mice; conditions: 20 µg i.p. on days 1 and 3, TNP-KLH/CFA day 0, dLN day 7, KLH recall 3 days
Text: The following reagents were used for the measurement of cytokines from T cells: anti-IL-2 (JES6-1A12, 503701, BioLegend, San Diego, CA, U.S.A.) capture antibody, biotin-anti-IL-2 (JES6-5H4, 503803, BioLegend) detection antibody, anti-IFN-γ (R4-6A2, 505702, BioLegend) capture antibody, biotin-anti-IFN-γ (XMG1.2, 505804, BioLegend) detection antibody, anti-IL-4 (11B11, 504101, BioLegend) capture antibody, biotin-anti-IL-4 (BVD6-24G2, 504201, BioLegend) detection antibody, anti-IL-17A (TC11-18H10.1, 506901, BioLegend) capture antibody, biotin-anti-IL-17A (TC11-8H4, 507001, BioLegend) detection antibody, HRP streptavidin (405210, BioLegend), and 3,3’,5,5’-tetramethylbenzidine (TMB, 421101, BioLegend). The absorbance was measured at 450 nm or 620 nm using a FilterMax F5 (Molecular Devices, San Jose, CA, U.S.A.).
Groups of C57BL/6 mice from both male and female mice aged between 5 and 15 weeks were immunized subcutaneously at the footpad with 100 µg of 2,4,6-trinitrophenyl-conjugated keyhole limpet hemocyanin (TNP-KLH) emulsified in complete Freund’s adjuvant (CFA) (F5881, Merck) on day 0. Recombinant proteins in PBS were injected intraperitoneally on days 1 and 3. […] Cell viability on day 3 was assessed with a 3-(4,5-dimethylthiazol-2-yl)-2,5-diphenyl-tetrazolium (MTT) (M2128, Merck) assay.

Substance	specific interaction with OX40 (OX40-Fc)	antigen-specific T cell responses (recall IFN-γ, IL-17, IL-4 production and proliferation of dLN cells) [1]
MBL-OX40L: Fusion protein: PA peptide tag, collagen-like domain of mannose-binding lectin, extracellular TNF homology domain of mouse OX40L	specifically interact with OX40	
Fc-MBL-OX40L: Fusion protein: human IgG1 Fc (hinge, CH2, CH3), PA, MBL collagen-like domain, OX40L THD		failed to effectively stimulate in vivo T cell responses
